The target in assay [1] is T1, synthetic peptide LKNQNQELPEDVNPAKKENYLSEQD (SEQ ID NO: 2).
T1 construct: Used to screen the hybridoma clones by ELISA; also called another synthetic peptide
T1 peptide: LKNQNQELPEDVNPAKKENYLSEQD
Briefly: ELISA screen of hybridoma clones on peptide.

In assay [2] the target is T2, human advillin-flag (hAvil-flag), exogenously expressed in 293 cells (human, UniProt O75366 1-819).
T2 construct: also called exogenous expression of human advillin clone; expression plasmid of human advillin; not shown: flag tag from the p3xFLAG-CMV14 vector
T2 sequence (looked up): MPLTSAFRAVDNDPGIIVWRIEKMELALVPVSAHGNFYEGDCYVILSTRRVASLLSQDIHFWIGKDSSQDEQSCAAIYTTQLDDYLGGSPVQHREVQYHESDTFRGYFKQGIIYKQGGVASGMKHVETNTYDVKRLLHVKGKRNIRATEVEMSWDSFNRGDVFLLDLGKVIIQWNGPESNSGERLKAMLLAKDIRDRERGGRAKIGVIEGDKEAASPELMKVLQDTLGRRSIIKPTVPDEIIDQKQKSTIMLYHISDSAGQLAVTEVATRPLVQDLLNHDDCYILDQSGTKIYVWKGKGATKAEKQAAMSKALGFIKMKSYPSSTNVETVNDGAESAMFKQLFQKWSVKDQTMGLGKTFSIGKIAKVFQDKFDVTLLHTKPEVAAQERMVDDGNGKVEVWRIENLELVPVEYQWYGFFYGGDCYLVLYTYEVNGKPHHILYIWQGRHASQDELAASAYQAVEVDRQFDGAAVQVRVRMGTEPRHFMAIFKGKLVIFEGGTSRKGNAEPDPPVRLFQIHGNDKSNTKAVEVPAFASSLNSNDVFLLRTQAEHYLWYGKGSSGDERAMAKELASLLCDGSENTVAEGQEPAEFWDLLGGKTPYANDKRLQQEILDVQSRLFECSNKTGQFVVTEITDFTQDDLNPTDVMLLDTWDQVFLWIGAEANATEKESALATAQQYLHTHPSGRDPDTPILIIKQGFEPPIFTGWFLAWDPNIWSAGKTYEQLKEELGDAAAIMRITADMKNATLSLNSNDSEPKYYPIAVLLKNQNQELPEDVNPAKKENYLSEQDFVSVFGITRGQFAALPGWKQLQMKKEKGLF
Briefly: western blot of lysates of 293 cells transfected with hAvil-flag or vector control. The text has this:
FIG. 6 The monoclonal antibody of human advillin specifically recognized exogenous expression of human advillin in 293 cells. Human advillin clone was tagged with flag, and the construct of human advillin-flag (hAvil-flag) or vector control (flag) were transfected into 293 cells. The lysates were detected with the monoclonal antibody of human advillin and flag antibody respectively. The molecular weight of human advillin is predicted as 92 KDa and the detected signals were corresponded to predicted size of hAvil-flag around 100 KDa. The top signal is supposed as aggregated forms as detected in the flag-antibody recognized signal.
Primary antibodies used in western blot were rabbit polyclonal anti-mouse advillin (1 μg/ml), mouse monoclonal anti-human advillin, and rabbit anti-albumin (1:1000, both GeneTex, San Antonio, Tex., USA). […] Cerebrospinal fluid (CSF) samples or protein from cell lysates separated by SDS-PAGE were transferred onto PVDF membranes by using a Mini Trans-Blot Electrophoretic Transfer Cell (Bio-rad, CA, USA). […] Enhanced chemiluminescence (ECL) involved the Immobilon ECL Kit (Millipore, MA, USA) and signals were detected by using the BioSpectrum Auto Imaging System (UVP, CA, USA). […]
For orientation: In western blotting, separated proteins are transferred to a membrane and probed.

B1: monoclonal antibody of human advillin hAvil, produced by the hybridoma YCC-S1 (antibody, V domains shown)
VH: EVKLEESGGGLVQPGGSLKLSCVASGFAFSNSWMSWVRQSPEKGLEWVAEIRLKSDNYASHYAESVKGRFTISRDDSKSRLYLQMNALRAEDTGIYYCSDGTWFTYWGQGTLVTVST
VL: DIVMSQSPSSLAVSVGEKVTMNCKSSQSLLYRANQKNYLAWYQQKPGQSPKLLIYWASTRESGVPDRFTGSGSGTDFTLTISSVKAEDLAVYYCQQYYSHPFTFGSGTKLKIK
notes: also called mouse monoclonal anti-human advillin; anti-advillin antibody
On to B1, for which the binding result in assay [1] and in assay [2] was “binds” throughout.

Source of the values: patent publication US20210355207A1 (ACADEMIA SINICA, published 2021).
